Data as given in patent US20140087995A1 (published 2014).
Numbered stars: 1 amine (or outer) side, 2 acyl side, 3 side chain; on linkers, the order of the positions; unused ones are H or OH. Bridge positions count the residues as written; N and C are the ends. Side chains are listed from the residue outwards. Ends that are not written are not given here. * marks the point of attachment. C20 diacid = O=C(O)CCCCCCCCCCCCCCCCCCC(=O)*; γGlu = O=C(O)[C@H](CCC(=O)[*:2])N[*:1]

B1: N^ε1-[(4S)-4-carboxy-4-(19-carboxynonadecanoylamino)butanoyl]-[Glu14,Arg17,Pro21,Pro27,Pro34,Glu35]-h-amylin (peptide)
peptide: K([γGlu-C20 diacid])CNTATCATQRLAEFLRHSSPNFGAIPSSTNVGPETY-NH2
modifications: disulfide 2-7; N-terminus assumed
SMILES: CC[C@H](C)[C@H](NC(=O)[C@H](C)NC(=O)CNC(=O)[C@H](Cc1ccccc1)NC(=O)[C@H](CC(N)=O)NC(=O)[C@@H]1CCCN1C(=O)[C@H](CO)NC(=O)[C@H](CO)NC(=O)[C@H](Cc1c[nH]cn1)NC(=O)[C@H](CCCNC(=N)N)NC(=O)[C@H](CC(C)C)NC(=O)[C@H](Cc1ccccc1)NC(=O)[C@H](CCC(=O)O)NC(=O)[C@H](C)NC(=O)[C@H](CC(C)C)NC(=O)[C@H](CCCNC(=N)N)NC(=O)[C@H](CCC(N)=O)NC(=O)[C@@H](NC(=O)[C@H](C)NC(=O)[C@@H]1CSSC[C@H](NC(=O)[C@@H](N)CCCCNC(=O)CC[C@H](NC(=O)CCCCCCCCCCCCCCCCCCC(=O)O)C(=O)O)C(=O)N[C@@H](CC(N)=O)C(=O)N[C@@H]([C@@H](C)O)C(=O)N[C@@H](C)C(=O)N[C@@H]([C@@H](C)O)C(=O)N1)[C@@H](C)O)C(=O)N1CCC[C@H]1C(=O)N[C@@H](CO)C(=O)N[C@@H](CO)C(=O)N[C@H](C(=O)N[C@@H](CC(N)=O)C(=O)N[C@H](C(=O)NCC(=O)N1CCC[C@H]1C(=O)N[C@@H](CCC(=O)O)C(=O)N[C@H](C(=O)N[C@@H](Cc1ccc(O)cc1)C(N)=O)[C@@H](C)O)C(C)C)[C@@H](C)O
B2: N^ε1-[(4S)-4-carboxy-4-(19-carboxynonadecanoylamino)butanoyl]-[Glu14,Arg17,Pro21,Pro27,Pro34,His35]-h-amylin (peptide)
peptide: K([γGlu-C20 diacid])CNTATCATQRLAEFLRHSSPNFGAIPSSTNVGPHTY-NH2
modifications: disulfide 2-7
B3: N^ε1-[(4S)-4-carboxy-4-(19-carboxynonadecanoylamino)butanoyl]-[Glu14,Arg17,Pro21,Pro27,Pro34,Pro37]-h-amylin (peptide)
peptide: K([γGlu-C20 diacid])CNTATCATQRLAEFLRHSSPNFGAIPSSTNVGPNTP-NH2
modifications: disulfide 2-7; N-terminus assumed
SMILES: CC[C@H](C)[C@H](NC(=O)[C@H](C)NC(=O)CNC(=O)[C@H](Cc1ccccc1)NC(=O)[C@H](CC(N)=O)NC(=O)[C@@H]1CCCN1C(=O)[C@H](CO)NC(=O)[C@H](CO)NC(=O)[C@H](Cc1c[nH]cn1)NC(=O)[C@H](CCCNC(=N)N)NC(=O)[C@H](CC(C)C)NC(=O)[C@H](Cc1ccccc1)NC(=O)[C@H](CCC(=O)O)NC(=O)[C@H](C)NC(=O)[C@H](CC(C)C)NC(=O)[C@H](CCCNC(=N)N)NC(=O)[C@H](CCC(N)=O)NC(=O)[C@@H](NC(=O)[C@H](C)NC(=O)[C@@H]1CSSC[C@H](NC(=O)[C@@H](N)CCCCNC(=O)CC[C@H](NC(=O)CCCCCCCCCCCCCCCCCCC(=O)O)C(=O)O)C(=O)N[C@@H](CC(N)=O)C(=O)N[C@@H]([C@@H](C)O)C(=O)N[C@@H](C)C(=O)N[C@@H]([C@@H](C)O)C(=O)N1)[C@@H](C)O)C(=O)N1CCC[C@H]1C(=O)N[C@@H](CO)C(=O)N[C@@H](CO)C(=O)N[C@H](C(=O)N[C@@H](CC(N)=O)C(=O)N[C@H](C(=O)NCC(=O)N1CCC[C@H]1C(=O)N[C@@H](CC(N)=O)C(=O)N[C@H](C(=O)N1CCC[C@H]1C(N)=O)[C@@H](C)O)C(C)C)[C@@H](C)O
B4: N^ε1-[(4S)-4-carboxy-4-(19-carboxynonadecanoylamino)butanoyl]-[His14,Arg17,Pro21,Pro27,Arg34]-h-amylin (peptide)
peptide: K([γGlu-C20 diacid])CNTATCATQRLAHFLRHSSPNFGAIPSSTNVGRNTY-NH2
modifications: disulfide 2-7; N-terminus assumed
SMILES: CC[C@H](C)[C@H](NC(=O)[C@H](C)NC(=O)CNC(=O)[C@H](Cc1ccccc1)NC(=O)[C@H](CC(N)=O)NC(=O)[C@@H]1CCCN1C(=O)[C@H](CO)NC(=O)[C@H](CO)NC(=O)[C@H](Cc1c[nH]cn1)NC(=O)[C@H](CCCNC(=N)N)NC(=O)[C@H](CC(C)C)NC(=O)[C@H](Cc1ccccc1)NC(=O)[C@H](Cc1c[nH]cn1)NC(=O)[C@H](C)NC(=O)[C@H](CC(C)C)NC(=O)[C@H](CCCNC(=N)N)NC(=O)[C@H](CCC(N)=O)NC(=O)[C@@H](NC(=O)[C@H](C)NC(=O)[C@@H]1CSSC[C@H](NC(=O)[C@@H](N)CCCCNC(=O)CC[C@H](NC(=O)CCCCCCCCCCCCCCCCCCC(=O)O)C(=O)O)C(=O)N[C@@H](CC(N)=O)C(=O)N[C@@H]([C@@H](C)O)C(=O)N[C@@H](C)C(=O)N[C@@H]([C@@H](C)O)C(=O)N1)[C@@H](C)O)C(=O)N1CCC[C@H]1C(=O)N[C@@H](CO)C(=O)N[C@@H](CO)C(=O)N[C@H](C(=O)N[C@@H](CC(N)=O)C(=O)N[C@H](C(=O)NCC(=O)N[C@@H](CCCNC(=N)N)C(=O)N[C@@H](CC(N)=O)C(=O)N[C@H](C(=O)N[C@@H](Cc1ccc(O)cc1)C(N)=O)[C@@H](C)O)C(C)C)[C@@H](C)O
notes: also called compound 85
B5: N^ε1-[(4S)-4-carboxy-4-(19-carboxynonadecanoylamino)butanoyl]-[His14,Arg17,Pro21,Pro27,Pro31,Pro34]-h-amylin (peptide)
peptide: K([γGlu-C20 diacid])CNTATCATQRLAHFLRHSSPNFGAIPSSTPVGPNTY-NH2
modifications: disulfide 2-7; N-terminus assumed
SMILES: CC[C@H](C)[C@H](NC(=O)[C@H](C)NC(=O)CNC(=O)[C@H](Cc1ccccc1)NC(=O)[C@H](CC(N)=O)NC(=O)[C@@H]1CCCN1C(=O)[C@H](CO)NC(=O)[C@H](CO)NC(=O)[C@H](Cc1c[nH]cn1)NC(=O)[C@H](CCCNC(=N)N)NC(=O)[C@H](CC(C)C)NC(=O)[C@H](Cc1ccccc1)NC(=O)[C@H](Cc1c[nH]cn1)NC(=O)[C@H](C)NC(=O)[C@H](CC(C)C)NC(=O)[C@H](CCCNC(=N)N)NC(=O)[C@H](CCC(N)=O)NC(=O)[C@@H](NC(=O)[C@H](C)NC(=O)[C@@H]1CSSC[C@H](NC(=O)[C@@H](N)CCCCNC(=O)CC[C@H](NC(=O)CCCCCCCCCCCCCCCCCCC(=O)O)C(=O)O)C(=O)N[C@@H](CC(N)=O)C(=O)N[C@@H]([C@@H](C)O)C(=O)N[C@@H](C)C(=O)N[C@@H]([C@@H](C)O)C(=O)N1)[C@@H](C)O)C(=O)N1CCC[C@H]1C(=O)N[C@@H](CO)C(=O)N[C@@H](CO)C(=O)N[C@H](C(=O)N1CCC[C@H]1C(=O)N[C@H](C(=O)NCC(=O)N1CCC[C@H]1C(=O)N[C@@H](CC(N)=O)C(=O)N[C@H](C(=O)N[C@@H](Cc1ccc(O)cc1)C(N)=O)[C@@H](C)O)C(C)C)[C@@H](C)O
B6: N^ε1-[(4S)-4-carboxy-4-(19-carboxynonadecanoylamino)butanoyl]-[His14,Arg17,Pro21,Pro27,Pro34,Pro37]-h-amylin (peptide)
peptide: K([γGlu-C20 diacid])CNTATCATQRLAHFLRHSSPNFGAIPSSTNVGPNTP-NH2
modifications: disulfide 2-7; N-terminus assumed
SMILES: CC[C@H](C)[C@H](NC(=O)[C@H](C)NC(=O)CNC(=O)[C@H](Cc1ccccc1)NC(=O)[C@H](CC(N)=O)NC(=O)[C@@H]1CCCN1C(=O)[C@H](CO)NC(=O)[C@H](CO)NC(=O)[C@H](Cc1c[nH]cn1)NC(=O)[C@H](CCCNC(=N)N)NC(=O)[C@H](CC(C)C)NC(=O)[C@H](Cc1ccccc1)NC(=O)[C@H](Cc1c[nH]cn1)NC(=O)[C@H](C)NC(=O)[C@H](CC(C)C)NC(=O)[C@H](CCCNC(=N)N)NC(=O)[C@H](CCC(N)=O)NC(=O)[C@@H](NC(=O)[C@H](C)NC(=O)[C@@H]1CSSC[C@H](NC(=O)[C@@H](N)CCCCNC(=O)CC[C@H](NC(=O)CCCCCCCCCCCCCCCCCCC(=O)O)C(=O)O)C(=O)N[C@@H](CC(N)=O)C(=O)N[C@@H]([C@@H](C)O)C(=O)N[C@@H](C)C(=O)N[C@@H]([C@@H](C)O)C(=O)N1)[C@@H](C)O)C(=O)N1CCC[C@H]1C(=O)N[C@@H](CO)C(=O)N[C@@H](CO)C(=O)N[C@H](C(=O)N[C@@H](CC(N)=O)C(=O)N[C@H](C(=O)NCC(=O)N1CCC[C@H]1C(=O)N[C@@H](CC(N)=O)C(=O)N[C@H](C(=O)N1CCC[C@H]1C(N)=O)[C@@H](C)O)C(C)C)[C@@H](C)O

Target: T1, rat calcitonin receptor (rat, UniProt P32214 25-516)
T1 construct: whole, on cells; Membranes of transiently transfected BHK tk'ts 13 cells (Assay VIII); also called rCTR
T1 sequence (looked up): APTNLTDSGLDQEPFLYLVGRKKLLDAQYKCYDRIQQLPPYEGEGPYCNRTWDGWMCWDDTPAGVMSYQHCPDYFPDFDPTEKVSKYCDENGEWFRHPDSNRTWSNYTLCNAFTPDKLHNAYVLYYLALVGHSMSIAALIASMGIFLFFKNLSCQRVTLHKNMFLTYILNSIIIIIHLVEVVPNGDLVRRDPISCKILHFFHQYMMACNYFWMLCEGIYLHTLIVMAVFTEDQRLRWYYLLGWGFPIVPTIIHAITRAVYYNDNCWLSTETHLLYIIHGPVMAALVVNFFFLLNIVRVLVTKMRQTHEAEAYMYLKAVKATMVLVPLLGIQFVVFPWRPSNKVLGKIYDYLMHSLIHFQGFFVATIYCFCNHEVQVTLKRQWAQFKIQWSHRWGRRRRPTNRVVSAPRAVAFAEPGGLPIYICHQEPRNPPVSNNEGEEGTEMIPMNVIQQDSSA
Experiment: ratio IC50 rat calcitonin receptor / IC50 rat amylin receptor (reference)

Binder | Ratio rCT/rAmylin binding
B1 | 63.2
B2 | 52.2
B3 | 1.1
B4 | 46.5
B5 | 72.4
B6 | 3

Target: T2, human calcitonin receptor (human, UniProt P30988 25-474)
T2 construct: whole, on cells; Membranes of a stably transfected BHK cell line (Assay VII); also called hCTR; hCT
T2 sequence (looked up): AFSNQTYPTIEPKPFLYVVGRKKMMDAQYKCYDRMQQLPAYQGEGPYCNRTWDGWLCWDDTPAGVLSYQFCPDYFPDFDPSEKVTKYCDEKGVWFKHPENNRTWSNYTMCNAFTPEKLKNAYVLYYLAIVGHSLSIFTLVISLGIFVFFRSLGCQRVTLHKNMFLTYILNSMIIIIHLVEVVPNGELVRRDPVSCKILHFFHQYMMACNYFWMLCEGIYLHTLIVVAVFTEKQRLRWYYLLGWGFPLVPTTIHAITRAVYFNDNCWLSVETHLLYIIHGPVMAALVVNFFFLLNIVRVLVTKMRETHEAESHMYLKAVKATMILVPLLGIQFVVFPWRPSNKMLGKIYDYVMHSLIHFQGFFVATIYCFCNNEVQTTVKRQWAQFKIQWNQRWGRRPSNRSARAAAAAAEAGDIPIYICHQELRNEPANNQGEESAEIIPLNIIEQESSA
Experiment: ratio IC50 human calcitonin receptor / IC50 human amylin receptor (reference)
Summary of the method: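 Competition binding by SPA with cell membranes (35 ng/μL) and SPA beads in 50 mM Hepes pH 7.4 with 1 mM CaCl2, 5 mM MgCl2, 0.1% OA and 0.02% Tween20. Incubated 120 min at 25 °C with shaking, then counted.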

Binder | Ratio hCT/hAmylin binding
B1 | 13.3
B2 | 21.2
B3 | 0.5
B4 | 91.8
B5 | 24.8
B6 | 1.2

Target: T1, rat calcitonin receptor
Experiment: SPA competition with 125I-calcitonin, membranes of BHK cells with rat calcitonin receptor (Assay VIII)

Binder | IC50
B1 | 10.4 nM
B2 | 5.43 nM
B3 | 0.206 nM
B4 | 146 nM
B5 | 9.05 nM
B6 | 0.371 nM

Target: T3, rat amylin receptor (rat calcitonin receptor + rat RAMP 3) (rat, UniProt P32214 25-516; Q9JJ73 23-147)
T3 construct: whole, on cells; Membranes of transiently transfected BHK tk'ts 13 cells (Assay VI); also called rAmylin-R; rat amylin 3(a) receptor
T3 sequence (looked up) 1: T1 sequence (looked up)
T3 sequence (looked up) 2: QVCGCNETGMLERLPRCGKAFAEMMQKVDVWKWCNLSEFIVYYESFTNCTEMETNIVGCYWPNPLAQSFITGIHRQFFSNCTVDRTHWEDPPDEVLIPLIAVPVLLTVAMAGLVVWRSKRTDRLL
Experiment: SPA competition with 125I-rat amylin, membranes of BHK cells with rat calcitonin receptor + rat RAMP3 (Assay VI)

Binder | IC50
B1 | 0.164 nM
B2 | 0.104 nM
B3 | 0.188 nM
B4 | 3.14 nM
B5 | 0.125 nM
B6 | 0.125 nM
